The data set deals with nerve growth factor (NGF) (UniProt P01139 P01139:122-241). Kind of data set: filter. The note with it: chain copies: 2.
Sequence of nerve growth factor (NGF) (P01139 122-241, one chain of several): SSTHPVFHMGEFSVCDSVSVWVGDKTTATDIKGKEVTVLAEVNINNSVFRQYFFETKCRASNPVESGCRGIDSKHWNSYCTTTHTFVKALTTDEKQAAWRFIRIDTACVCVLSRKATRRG

B1: hsngf.a (ssRNA)
RNA: GGGAGCUCAGAAUAAACGCUCAACUCAUGGAGCGCAAGACGAAUAGCUACAUAUUCGACAUGAGGCCCGGAUCCGGC
For the molecule B1, the binding result is listed as “binds”.
